Test results from patent publication KR20210118351A (dated 2021).

B1: No. 152 항체 (Full IgG) (antibody, V domains shown)
VH: QITLKESGPSLVKPSQTLTLTCTFSGFSLTTSGMGVGWIRQPPGKALEWLALIDWDDNKYYTTSLKTRLTISKDTSKNQVVLTMTNMDPVDTATYYCARIPGFLRYRNRYYYYGMDVWGQGTTVTVSS
VL: ELVLTQPPSVSAAPGQKVTISCSGRSSNIGNNYVSWYQQLPGTAPKLLIYDNNKRPSGIPDRFSGSKSGTSATLGITGLQTGDEADYYCGTWDSSLSAGVFGGGTQLTVL
B2: No. 217 항체 (Full IgG) (antibody, V domains shown)
VH: EVQLVESGGGVVQPGRSLRLSCAASGFTFSRFAMHWVRQAPGKGLEWVAVVSYDGSNNYYADSVKGRFTISRDNSKNTLYLQMNSLRAEDTAVYYCARGDYYGSGSYYNPSPFFDYWGQGTLVTVSS
VL: not shown
B3: No. 218 항체 (Full IgG) (antibody, V domains shown)
VH: QVQLVQSGGGVVQPGRSLRLSCAASGFTFSSFAMHWVRQAPGKGLEWVAVISFDGSNKYYADSVKGQFTISRDNSKNTLYLQMNSLRAEDTAVYYCARGDYYGSGSYYNPSPFFDYWGQGTLVTVSS
VL: ELELTQPPSVSGTPGQRVSISCSGSTSNIGSNPVNWFQQLPGTAPKLLIYSNNQRPSGVPNRFSGSKSGTSASLAISGLQSDDEADYYCAAWDDSLNGWVFGGGTKVTVL
B4: No. 230 항체 (Full IgG) (antibody, V domains shown)
VH: QVQLVQSGGGVVQPGRSLRLSCAASGFTFSNFAMHWVRQAPGKGLEWVAVISYDGSNKYYADSVKGRFTISRDNFKNTLYLQMNSLRAEDTAVYYCARGDYYGSGSYYNPSPFFDYWGQGTLVTVSS
VL: not shown
B5: No. 260 항체 (Full IgG) (antibody, V domains shown)
VH: EVQLVESGGGLVQPGRTLRLSCAASGFTFDDYAMHWVRQPPGKGLEWVSGIDWNSGLIGYADAVKGRFTLSRDNAKNSIFLQMNSLRAEDTALYYCVKDMGSTGGYYGMDVWGQGTTVIVSS
VL: not shown
B6: No. 270 항체 (Full IgG) (antibody, V domains shown)
VH: QVQLVQSGGGLVQPGGSLRLSCAASGLTVSSNYMTWVRQAPGKGLEWVSVIYSGGSTFYADSVKGRFTISRDNSKNTLYLQMNSLRAEDTAVYYCARDLVVYGMDVWGQGTTVTVSS
VL: ELVLTQSPGTLSLSPGERATLSCRASQSVSSYLAWYQQKPGQAPRLLIYDASNRATGIPARFSGSGSGTDFTLTISSLEPEDFAVYYCQQYGSSPLTFGGGTKVDIK
B7: No. 271 항체 (Full IgG) (antibody, V domains shown)
VH: EVQLVESGGGLVQPGGSLRLSCAASGFTVSSNYMTWVRQAPGKGLEWVSVIYSGGSTFYADSVKGRFTISRDNSKNTLYLQMNSLRAEDTAVYYCARDLVVYGMDVWGQGTTVTVSS
VL: ELELTQPPSASGTPGQRVTISCSGSSSNIGSNTVNWYQQLPGTAPKLLIYSNNQRPSGVPDRFSGSKSGTSASLAISGLQSEDEADYYCSSYAGSNNLVFGGGTKLTVL
B8: No. 274 항체 (Full IgG) (antibody, V domains shown)
VH: EVQLVESGGGLVQPGGSLRLSCAASGFTVSSNYMTWVRQAPGKGLEWVSVIYSGGSTFYADSVKGRFTISRDNSKNTLYLQMNSLRAEDTAVYYCARDLVVYGMDVWGQGTTVTVSS
VL: ELELTQPPSVSGAPGQRVTISCTGSSSNIGAGYDVHWYQQLPGTAPKLLIYGNSNRPSGVPDRFSGSKSGTSASLAITGLQAEDEADYYCQSYDSSLGVVFGGGTKVTVL
B9: No. 275 항체 (Full IgG) (antibody, V domains shown)
VH: EVQLVESGGGLVQPGGSLRLSCAASGFTVSSNYMTWVRQAPGKGLEWVSVIYSGGSTFYADSVKGRFTISRDNSKNTLYLQMNSLRAEDTAVYYCARDLVVYGMDVWGQGTTVTVSS
VL: ELVLTQPPSVSVAPGKTARITCGGNNIGSNTVNWYQQLPGTAPKLLIYSNNLRPSGVPDRFSGSKSGTSASLAISGLQSEDEADYYCAAWDDSLNGPVFGGGTKVTVL
B10: No. 281 항체 (Full IgG) (antibody, V domains shown)
VH: QVQLVQSGGGLVQPGGSLRLSCAASGITVSSNYMSWVRQAPGKGLEWVSVIYSGGSTNYADSVKGRFTISRDNSKNTLYLQMNSLRAEDTAVYYCARDLIVYGMDVWGQGTTVTVSS
VL: ELVLTQPPSVSGAPGQRVTISCTGSSSNIGAGYDVHWYQQLPGTAPKLLIYGNSNRPSGVPDRFSGSKSGTSASLAITGLQAEDEADYYCAAWDDSLSGWVFGGGTKVTVL
B11: No. 284 항체 (Full IgG) (antibody, V domains shown)
VH: QVQLVQSGGGLVQPGGSLRLSCAASGVTVSSNYMSWVRQAPGKGLEWVSVIYSGGSTYYADSVKGRFTISRHNSKNTLYLQMNSLRAEDTAVYYCARGHVDIPYGMDVWGQGTTVTVSS
VL: ELVLTQPPSVSAAPGQKVTISCSGSSSNIGNNYVSWYQQLPGTAPKLLIYDNNKRPSGIPDRFSGSKSGTSATLGITGLQTGDEADYYCGTWDSSLSAGVFGGGTQLTVL

The binders below were run against T1, S protein of SARS-CoV-2 BetaCoV/Korea/KCDC03/2020 (614D, S형) (SARS-CoV-2, UniProt P0DTC2 14-1273) (assay: cell-based or functional assay).
For B1, the “IC50, PRNT” value was 0.0062 µg/mL.
For B2, the “IC50, PRNT” value was 5.95 µg/mL.
B3 was tested, and the “IC50, PRNT” value was 0.562 µg/mL.
For B4, the “IC50, PRNT” value was 0.432 µg/mL.
With B5 the “IC50, PRNT” value was 0.401 µg/mL.
For B6, the “IC50, PRNT” value was 0.152 µg/mL.
With B7 the “IC50, PRNT” value was 1.68 µg/mL.
For B8, the “IC50, PRNT” value was 0.301 µg/mL.
For B9, the “IC50, PRNT” value was 0.272 µg/mL.
For B10, the “IC50, PRNT” value was 1.43 µg/mL.
With B11 the “IC50, PRNT” value was 0.702 µg/mL.

Molecular target: T1, S protein of SARS-CoV-2 …
Experiment: cell-based or functional assay
Remark: another data set of the same source
For B5, the “IC50, PRNT” value was greater than 1 µg/mL.

The binders below were run against S protein of SARS-CoV-2 hCoV-19/South Korea/KUMC17/2020 (614G) (SARS-CoV-2, UniProt P0DTC2 14-1273) (assay: cell-based or functional assay).
For B5, the “IC50, PRNT” value was greater than 1 µg/mL.
